Results: IntAct's records for PubMed 19858347

B1: Killer cell immunoglobulin-like receptor 2DL1 (Homo sapiens), P43626 (parent)
chain: MSLLVVSMACVGFFLLQGAWPHEGVHRKPSLLAHPGRLVKSEETVILQCWSDVMFEHFLLHREGMFNDTLRLIGEHHDGVSKANFSISRMTQDLAGTYRCYGSVTHSPYQVSAPSDPLDIVIIGLYEKPSLSAQLGPTVLAGENVTLSCSSRSSYDMYHLSREGEAHERRLPAGPKVNGTFQADFPLGPATHGGTYRCFGSFHDSPYEWSKSSDPLLVSVTGNPSNSWPSPTEPSSKTGNPRHLHILIGTSVVIILFILLFFLLHRWCSNKKNAAVMDQESAGNRTANSEDSDEQDPQEVTYTQLNHCVFTQRKITRPSQRPKTPPTDIIVYTELPNAESRSKVVSCP
B2: Killer cell immunoglobulin-like receptor 2DS4 (Homo sapiens), P43632 (parent)
chain: MSLMVIIMACVGFFLLQGAWPQEGVHRKPSFLALPGHLVKSEETVILQCWSDVMFEHFLLHREGKFNNTLHLIGEHHDGVSKANFSIGPMMPVLAGTYRCYGSVPHSPYQLSAPSDPLDMVIIGLYEKPSLSAQPGPTVQAGENVTLSCSSRSSYDMYHLSREGEAHERRLPAVRSINGTFQADFPLGPATHGGTYRCFGSFRDAPYEWSNSSDPLLVSVTGNPSNSWPSPTEPSSKTGNPRHLHVLIGTSVVKIPFTILLFFLLHRWCSDKKNAAVMDQEPAGNRTVNSEDSDEQDHQEVSYA
B3: Killer cell immunoglobulin-like receptor 2DL3 (Homo sapiens), P43628 (parent)
chain: MSLMVVSMVCVGFFLLQGAWPHEGVHRKPSLLAHPGPLVKSEETVILQCWSDVRFQHFLLHREGKFKDTLHLIGEHHDGVSKANFSIGPMMQDLAGTYRCYGSVTHSPYQLSAPSDPLDIVITGLYEKPSLSAQPGPTVLAGESVTLSCSSRSSYDMYHLSREGEAHERRFSAGPKVNGTFQADFPLGPATHGGTYRCFGSFRDSPYEWSNSSDPLLVSVTGNPSNSWPSPTEPSSETGNPRHLHVLIGTSVVIILFILLLFFLLHRWCCNKKNAVVMDQEPAGNRTVNREDSDEQDPQEVTYAQLNHCVFTQRKITRPSQRPKTPPTDIIVYTELPNAEP

Variants of: B1
Details: with hlac_human HLA-C
Target sequence in this assay (P10321 whole entry): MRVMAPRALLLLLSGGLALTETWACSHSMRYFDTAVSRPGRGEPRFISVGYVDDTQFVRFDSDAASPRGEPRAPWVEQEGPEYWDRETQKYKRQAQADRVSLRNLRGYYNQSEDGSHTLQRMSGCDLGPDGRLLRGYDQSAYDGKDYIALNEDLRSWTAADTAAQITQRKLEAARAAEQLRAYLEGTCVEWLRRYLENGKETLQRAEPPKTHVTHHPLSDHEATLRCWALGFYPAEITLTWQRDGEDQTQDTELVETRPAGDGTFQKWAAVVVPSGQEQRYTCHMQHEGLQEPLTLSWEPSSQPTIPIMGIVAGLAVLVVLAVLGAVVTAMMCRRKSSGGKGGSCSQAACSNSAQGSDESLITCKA

Row | Variant | effect of a mutation on the interaction
1 | T105P | decreasing interaction strength
2 | Q92P | increasing interaction strength
3 | Q92P;D93V;T105P | decreasing interaction strength
4 | Q92P;D93V | decreasing interaction strength

Variants of: B1
Details: with hlac_human HLA-C
Remark: another data set of the same source
Target sequence in this assay (P10321 whole entry): as above

Row | Variant | effect of a mutation on the interaction
5 | Q92P | decreasing interaction strength

Variants of: B2
Details: with hlac_human HLA-C
Target sequence in this assay (P10321 whole entry): as above

Row | Variant | effect of a mutation on the interaction
6 | I123T | decreasing interaction strength
7 | P92Q;V93D | decreasing interaction strength
8 | A205S | decreasing interaction strength
9 | K65M | decreasing interaction strength

Variants of: B2
Details: with hlac_human HLA-C
Remark: another data set of the same source
Target sequence in this assay (P10321 whole entry): as above

Row | Variant | effect of a mutation on the interaction
10 | P92Q;V93D | with no effect
11 | A205S | with no effect
12 | K65M | disrupting interaction strength

Variants of: B2
Details: with hlac_human HLA-C
Remark: another data set of the same source
Target sequence in this assay (P10321 whole entry): as above

Row | Variant | effect of a mutation on the interaction
13 | P92Q;V93D | increasing interaction strength
14 | K65M | causing an interaction

Variants of: B2
Details: with hlab_human HLA-B
Target sequence in this assay (P01889 whole entry): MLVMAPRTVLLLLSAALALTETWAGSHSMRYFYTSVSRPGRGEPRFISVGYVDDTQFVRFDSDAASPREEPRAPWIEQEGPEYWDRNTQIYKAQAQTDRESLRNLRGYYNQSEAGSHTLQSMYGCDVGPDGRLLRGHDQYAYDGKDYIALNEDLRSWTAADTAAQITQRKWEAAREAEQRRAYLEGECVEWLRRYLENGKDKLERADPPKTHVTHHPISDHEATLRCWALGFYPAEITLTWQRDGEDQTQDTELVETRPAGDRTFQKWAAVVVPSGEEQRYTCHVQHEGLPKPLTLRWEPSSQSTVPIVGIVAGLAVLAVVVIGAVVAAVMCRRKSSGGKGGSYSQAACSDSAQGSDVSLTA

Row | Variant | effect of a mutation on the interaction
15 | P92Q;V93D | causing an interaction
16 | A205S | causing an interaction

Variants of: B2
Details: with hlac_human HLA-C
Remark: another data set of the same source
Target sequence in this assay (P10321 whole entry): as the sequence (P10321 whole entry) above

Row | Variant | effect of a mutation on the interaction
17 | P92Q;V93D | causing an interaction
18 | A205S | causing an interaction

Variants of: B2
Details: with hlac_human HLA-C
Remark: another data set of the same source

Row | Variant | effect of a mutation on the interaction
19 | K65M | with no effect

Variants of: B3
Details: with hlac_human HLA-C

Row | Variant | effect of a mutation on the interaction
20 | Q92P;D93V;T105P | decreasing interaction strength
21 | T105P | decreasing interaction strength
22 | Q92P;D93V | decreasing interaction strength
23 | Q92P | increasing interaction strength

Variants of: B3
Details: with hlac_human HLA-C
Remark: another data set of the same source

Row | Variant | effect of a mutation on the interaction
24 | Q92P;D93V;T105P | disrupting interaction strength
25 | T105P | disrupting interaction strength
26 | Q92P;D93V | disrupting interaction strength

Variants of: B3
Details: with hlab_human HLA-B
Target sequence in this assay (P01889 whole entry): as the sequence (P01889 whole entry) above

Row | Variant | effect of a mutation on the interaction
27 | Q92P | decreasing interaction strength
